Test results taken from US20190309059A1 (SHANGHAI PHARMAEXPLORER, published 2019).
Several values for one entry are separate records, joined by “and”; a condition that tells them apart may be missing. Equal values may be shown once.

Tests used:
[1] = molecular target: his-labeled human IL-13 (immunogen A) (human) (UniProt P35225); assay: cell-based or functional assay
[2] = molecular target: cynomolgus IL-13 (purchased from sino biological) (cynomolgus) (UniProt Q0PW92); assay: ELISA, cynomolgus IL-13; antibody at 0.53 nM
[3] = molecular target: cynomolgus IL-13 (purchased from sino biological) (cynomolgus) (UniProt Q0PW92); assay: ELISA, cynomolgus IL-13; antibody at 2.67 nM
[4] = molecular target: cynomolgus IL-13 (purchased from sino biological) (cynomolgus) (UniProt Q0PW92); assay: ELISA, cynomolgus IL-13; antibody at 0.004 nM
[5] = molecular target: cynomolgus IL-13 (purchased from sino biological) (cynomolgus) (UniProt Q0PW92); assay: ELISA, cynomolgus IL-13; antibody at 0.021 nM
[6] = molecular target: cynomolgus IL-13 (purchased from sino biological) (cynomolgus) (UniProt Q0PW92); assay: ELISA, cynomolgus IL-13; antibody at 0.107 nM
[7] = molecular target: his-labeled human IL-13 (immunogen A) (human) (UniProt P35225); assay: ELISA, biotin-immunogen A; antibody at 0.11 nM
[8] = molecular target: his-labeled human IL-13 (immunogen A) (human) (UniProt P35225); assay: ELISA, biotin-immunogen A; antibody at 0.53 nM
[9] = molecular target: his-labeled human IL-13 (immunogen A) (human) (UniProt P35225); assay: ELISA, biotin-immunogen A; antibody at 2.67 nM
[10] = molecular target: his-labeled human IL-13 (immunogen A) (human) (UniProt P35225); assay: FACS blocking, biotin-IL-13 on IL-13Ra2 HEK293 cells; antibody at 0.01 nM
[11] = molecular target: his-labeled human IL-13 (immunogen A) (human) (UniProt P35225); assay: FACS blocking, biotin-IL-13 on IL-13Ra2 HEK293 cells; antibody at 0.05 nM
[12] = molecular target: his-labeled human IL-13 (immunogen A) (human) (UniProt P35225); assay: FACS blocking, biotin-IL-13 on IL-13Ra2 HEK293 cells; antibody at 0.27 nM
[13] = molecular target: his-labeled human IL-13 (immunogen A) (human) (UniProt P35225); assay: FACS blocking, biotin-IL-13 on IL-13Ra2 HEK293 cells; antibody at 1.33 nM
[14] = molecular target: his-labeled human IL-13 (immunogen A) (human) (UniProt P35225); assay: FACS blocking, biotin-IL-13 on IL-13Ra2 HEK293 cells; antibody at 6.67 nM
[15] = molecular target: his-labeled human IL-13 (immunogen A) (human) (UniProt P35225); assay: ELISA, biotin-immunogen A; antibody at 0.00 nM (6th dilution)
[16] = molecular target: his-labeled human IL-13 (immunogen A) (human) (UniProt P35225); assay: FACS blocking, biotin-IL-13 on IL-13Ra2 HEK293 cells; antibody at 0.002 nM
[17] = molecular target: his-labeled human IL-13 (immunogen A) (human) (UniProt P35225); assay: FACS blocking, biotin-IL-13 on IL-13Ra2 HEK293 cells; antibody at 33.33 nM
[18] = molecular target: his-labeled human IL-13 (immunogen A) (human) (UniProt P35225); assay: FACS blocking, biotin-IL-13 on IL-13Ra2 HEK293 cells; antibody at 166.67 nM
[19] = molecular target: his-labeled human IL-13 (immunogen A) (human) (UniProt P35225); assay: FACS blocking, biotin-IL-13 on IL-13Ra1/IL-4Ra HEK293 cells; antibody at 0.01 nM
[20] = molecular target: his-labeled human IL-13 (immunogen A) (human) (UniProt P35225); assay: FACS blocking, biotin-IL-13 on IL-13Ra1/IL-4Ra HEK293 cells; antibody at 0.05 nM
[21] = molecular target: his-labeled human IL-13 (immunogen A) (human) (UniProt P35225); assay: FACS blocking, biotin-IL-13 on IL-13Ra1/IL-4Ra HEK293 cells; antibody at 0.27 nM
[22] = molecular target: his-labeled human IL-13 (immunogen A) (human) (UniProt P35225); assay: FACS blocking, biotin-IL-13 on IL-13Ra1/IL-4Ra HEK293 cells; antibody at 1.33 nM
[23] = molecular target: his-labeled human IL-13 (immunogen A) (human) (UniProt P35225); assay: FACS blocking, biotin-IL-13 on IL-13Ra1/IL-4Ra HEK293 cells; antibody at 6.67 nM
[24] = molecular target: his-labeled human IL-13 (immunogen A) (human) (UniProt P35225); assay: FACS blocking, biotin-IL-13 on IL-13Ra1/IL-4Ra HEK293 cells; antibody at 0.002 nM
[25] = molecular target: his-labeled human IL-13 (immunogen A) (human) (UniProt P35225); assay: FACS blocking, biotin-IL-13 on IL-13Ra1/IL-4Ra HEK293 cells; antibody at 33.33 nM
[26] = molecular target: his-labeled human IL-13 (immunogen A) (human) (UniProt P35225); assay: FACS blocking, biotin-IL-13 on IL-13Ra1/IL-4Ra HEK293 cells; antibody at 166.67 nM

Chain of cynomolgus IL-13 (purchased from sino biological) (cynomolgus) (Q0PW92 entry or part of it): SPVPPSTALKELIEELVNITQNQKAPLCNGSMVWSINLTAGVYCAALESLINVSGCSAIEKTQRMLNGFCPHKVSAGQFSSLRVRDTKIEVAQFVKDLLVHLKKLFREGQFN

IgG control (mouse IgG) (antibody)
Periostin (pg/mL), MRCS cells + IL-13 5 ng/mL; control antibody at 0.0002 nM [1]: 6350 pg/mL
Periostin (pg/mL), MRCS cells + IL-13 5 ng/mL; control antibody at 0.001 nM [1]: 4760 pg/mL
Periostin (pg/mL), MRCS cells + IL-13 5 ng/mL; control antibody at 0.004 nM [1]: 4290 pg/mL
Periostin (pg/mL), MRCS cells + IL-13 5 ng/mL; control antibody at 0.021 nM [1]: 4010 pg/mL
Periostin (pg/mL), MRCS cells + IL-13 5 ng/mL; control antibody at 0.11 nM [1]: 3830 pg/mL
Periostin (pg/mL), MRCS cells + IL-13 5 ng/mL; control antibody at 0.53 nM [1]: 4920 pg/mL
Periostin (pg/mL), MRCS cells + IL-13 5 ng/mL; control antibody at 2.67 nM [1]: 5740 pg/mL
Periostin (pg/mL), MRCS cells + IL-13 5 ng/mL; control antibody at 13.3 nM [1]: 6240 pg/mL
TARC (pg/mL), A549 cells + IL-13 5 ng/mL + TNFα; control antibody at 0.001 nM [1]: 2010 pg/mL
TARC (pg/mL), A549 cells + IL-13 5 ng/mL + TNFα; control antibody at 0.004 nM [1]: 1720 pg/mL
TARC (pg/mL), A549 cells + IL-13 5 ng/mL + TNFα; control antibody at 0.021 nM [1]: 1740 pg/mL
TARC (pg/mL), A549 cells + IL-13 5 ng/mL + TNFα; control antibody at 0.11 nM [1]: 1650 pg/mL
TARC (pg/mL), A549 cells + IL-13 5 ng/mL + TNFα; control antibody at 0.5 nM [1]: 1640 pg/mL
TARC (pg/mL), A549 cells + IL-13 5 ng/mL + TNFα; control antibody at 2.7 nM [1]: 1720 pg/mL
TARC (pg/mL), A549 cells + IL-13 5 ng/mL + TNFα; control antibody at 13.3 nM [1]: 1800 pg/mL
TARC (pg/mL), A549 cells + IL-13 5 ng/mL + TNFα; control antibody at 66.7 nM [1]: 1870 pg/mL
TARC (pg/mL), A549 cells + IL-13 + TNFα; control antibody at 0.001 nM [1]: 3120 pg/mL
TARC (pg/mL), A549 cells + IL-13 + TNFα; control antibody at 0.001 nM (part 2, with hP4 4H12) [1]: 2920 pg/mL
TARC (pg/mL), A549 cells + IL-13 + TNFα; control antibody at 0.004 nM [1]: 2980 pg/mL
TARC (pg/mL), A549 cells + IL-13 + TNFα; control antibody at 0.004 nM (part 2, with hP4 4H12) [1]: 2560 pg/mL
TARC (pg/mL), A549 cells + IL-13 + TNFα; control antibody at 0.021 nM [1]: 3000 pg/mL
TARC (pg/mL), A549 cells + IL-13 + TNFα; control antibody at 0.021 nM (part 2, with hP4 4H12) [1]: 2580 pg/mL
TARC (pg/mL), A549 cells + IL-13 + TNFα; control antibody at 0.11 nM [1]: 2780 pg/mL
TARC (pg/mL), A549 cells + IL-13 + TNFα; control antibody at 0.11 nM (part 2, with hP4 4H12) [1]: 2570 pg/mL
TARC (pg/mL), A549 cells + IL-13 + TNFα; control antibody at 0.5 nM (part 2, with hP4 4H12) [1]: 2580 pg/mL
TARC (pg/mL), A549 cells + IL-13 + TNFα; control antibody at 0.53 nM [1]: 2840 pg/mL
TARC (pg/mL), A549 cells + IL-13 + TNFα; control antibody at 2.67 nM [1]: 2720 pg/mL
TARC (pg/mL), A549 cells + IL-13 + TNFα; control antibody at 2.7 nM (part 2, with hP4 4H12) [1]: 2790 pg/mL
TARC (pg/mL), A549 cells + IL-13 + TNFα; control antibody at 13.3 nM [1]: 2820 pg/mL
TARC (pg/mL), A549 cells + IL-13 + TNFα; control antibody at 13.3 nM (part 2, with hP4 4H12) [1]: 2870 pg/mL
TARC (pg/mL), A549 cells + IL-13 + TNFα; control antibody at 66.7 nM [1]: 2700 pg/mL
TARC (pg/mL), A549 cells + IL-13 + TNFα; control antibody at 66.7 nM (part 2, with hP4 4H12) [1]: 2920 pg/mL
VCAM-1 fluorescence intensity, HUVEC + IL-13 0.5 ng/mL + TNFα; control antibody at 0.0002 nM [1]: 347
VCAM-1 fluorescence intensity, HUVEC + IL-13 0.5 ng/mL + TNFα; control antibody at 0.001 nM [1]: 369
VCAM-1 fluorescence intensity, HUVEC + IL-13 0.5 ng/mL + TNFα; control antibody at 0.004 nM [1]: 373
VCAM-1 fluorescence intensity, HUVEC + IL-13 0.5 ng/mL + TNFα; control antibody at 0.021 nM [1]: 369
VCAM-1 fluorescence intensity, HUVEC + IL-13 0.5 ng/mL + TNFα; control antibody at 0.11 nM [1]: 340
VCAM-1 fluorescence intensity, HUVEC + IL-13 0.5 ng/mL + TNFα; control antibody at 0.53 nM [1]: 302
VCAM-1 fluorescence intensity, HUVEC + IL-13 0.5 ng/mL + TNFα; control antibody at 2.67 nM [1]: 354
VCAM-1 fluorescence intensity, HUVEC + IL-13 0.5 ng/mL + TNFα; control antibody at 13.3 nM [1]: 341
OD450 nm [2]: 0.09
OD450 nm [3]: 0.06
OD450 nm [4]: 0.07
OD450 nm [5]: 0.07
OD450 nm [6]: 0.059
OD450 nm [7]: 0.07 and 0.05
OD450 nm [8]: 0.07 and 0.06
OD450 nm [9]: 0.08
mean fluorescence intensity [10]: 83.2
mean fluorescence intensity [11]: 81.3
mean fluorescence intensity [12]: 78.9
mean fluorescence intensity [13]: 80.7
mean fluorescence intensity [14]: 77.2
OD450 nm [15]: 0.08
mean fluorescence intensity [16]: 79.3
mean fluorescence intensity [17]: 82.7
mean fluorescence intensity [18]: 77
mean fluorescence intensity [19]: 72.4
mean fluorescence intensity [20]: 68.9
mean fluorescence intensity [21]: 67.9
mean fluorescence intensity [22]: 37.5
mean fluorescence intensity [23]: 27.7
mean fluorescence intensity [24]: 72
mean fluorescence intensity [25]: 22.1
mean fluorescence intensity [26]: 17.1
